The target of assay [1] is T1, recombinant D4 domain polypeptide of human KIT (V308 to K412, with His tag) (human, UniProt P10721 26-412).
T1 construct: also called D4 domain of human KIT
Kind of assay: solid phase ELISA, polypeptide coated on plate.

For assay [2], the target named is T2, recombinant D5 domain polypeptide of human KIT (N410 to H515, with His tag) (human, UniProt P10721 26-519).
T2 construct: also called D5 domain of human KIT
Kind of assay: solid phase ELISA, polypeptide coated on plate. For orientation: An ELISA detects its analyte on a solid surface through an enzyme-linked reagent.

The target of assay [3] is T3, recombinant KIT D4/D5 polypeptide (D4/D5 region of human KIT, V308 to H515, with 5xHis tag) (human, UniProt P10721 26-519).
T3 construct: also called recombinant antigen; recombinant IG domain four and five of the extracellular region of KIT
Kind of assay: solid phase ELISA, D4/D5 polypeptide coated on plate. The protocol:
(§1) Coating plates with antigen: Recombinant antigen containing the D4/D5 region of the KIT extracellular Ig-like region (see FIG. 2A) were absorbed to 96-well microtiter plates. 10 μg of recombinant antigen (i.e., D4/D5 region of KIT) were diluted into 10 mL of borate buffer, and 100 μL of the antigen solution were added to each well of a 96 well plate. The 96 well plate was covered with a plate sealer, was incubated at 4° C. overnight, and then stored at −80° C. until the day of the assay.
ELISA: The plate with the absorbed antigen was removed from the −80° C. freezer and was allowed to thaw at room temperature. The borate buffer was removed by flicking the plate into the sink and blotting the plate dry. 200 μL of the blocking buffer were added to each well and allowed to incubate at room temperature for one hour. The blocking buffer was removed, again by flicking the plate into the sink. Then, the diluted solution of test antibodies and controls (were added to the plate in a volume of 50 μL and incubated at room temperature for one hour. The antibody solutions were removed, and the plate was washed four times with 300 μL of wash buffer with five minute incubations. After the last wash, the plate was blotted dry. The diluted secondary antibody solution was added to each well in a volume of 100 μL and allowed to incubate for one hour at room temperature. The diluted secondary antibody solution was removed, and the plate was washed four times with 300 μL of wash buffer with five minute incubations. The plate was then blotted dry, and freshly mixed substrate solution was added to each well in a volume of 100 μL and was allowed to incubate at room temperature for 30 minutes. Subsequently, 100 μL of 2NH₂SO₄ were added to each well and immediately read on the plate reader. An irrelevant antibody served as the negative control, and an anti-KIT antibody against the D4 and/or D5 domain of the extracellular region of KIT served as the positive control. OD values for each sample were obtained at a wavelength of 450 nm.

Assay [4] addresses T3, recombinant KIT D4/D5 polypeptide …. Put plainly: solid phase ELISA, D4/D5 antigen coated on plate, Fab; concentration at 50% binding. The protocol: as §1
ELISA: The plate with the absorbed antigen was removed from the −80° C. freezer and was allowed to thaw at room temperature. The borate buffer was removed by flicking the plate into the sink and blotting the plate dry. 200 μL of the blocking buffer were added to each well and allowed to incubate at room temperature for one hour. The blocking buffer was removed, again by flicking the plate into the sink. […] Subsequently, 100 μL of 2NH₂SO₄ were added to each well and immediately read on the plate reader. […]

The target in assay [5] is T2, recombinant D5 domain polypeptide of …. Put plainly: solid phase ELISA, D5 polypeptide coated on plate.
Assay [6] addresses full-length, wild-type human KIT (human, UniProt P10721 26-976). Kind of assay: cell-based or functional assay.
The target of assay [7] is T3, recombinant KIT D4/D5 polypeptide …. Put plainly: binding assays on the D4/D5 region of human KIT (solid phase ELISA); IgG version of Fab Ab1 (Dyax reformatting), Example 2.
For assay [8] the target is unchanged. Kind of assay: solid phase ELISA, recombinant D4/D5 region coated on plate, full-length human IgG1. The protocol: Serial antibody dilutions were prepared as follows. A starting antibody concentration of 300 nM (or lower depending on sample) was diluted down 1:3 in dilution buffer. Specifically, 200 μl of the starting concentration (top row of dilution plate) was prepared, and 75 μl was diluted into 150 μl in the row below. The dilution was mixed, and the dilution step was repeated down the plate. From the dilution plate, 100 μl was transferred to the assay plate.
The binding assays were carried out as follows. The plate coated with antigen (i.e., recombinant D4/D5 region of KIT) were removed from the −80° C. freezer and were allowed to warm to room temperature. The borate buffer was removed by flicking the plate into the sink and blotting it dry. 200 μL of the blocking buffer (1% BSA/TBS) was added and incubated at room temperature for one hour. The blocking buffer was then removed by flicking the plate into the sink, and blotting dry. Then, the serially diluted antibodies and controls were added to the plate in a volume of 100 μL, and the plate was sealed and incubated at room temperature for one hour.

T2 sequence (P10721 other isoform, or with tags, fused parts or gaps limits assumed): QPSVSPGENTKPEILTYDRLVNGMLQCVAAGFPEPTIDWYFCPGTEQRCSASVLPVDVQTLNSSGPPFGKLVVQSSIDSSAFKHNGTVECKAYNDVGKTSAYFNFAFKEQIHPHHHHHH
T1 sequence (P10721 other isoform, or with tags, fused parts or gaps limits assumed): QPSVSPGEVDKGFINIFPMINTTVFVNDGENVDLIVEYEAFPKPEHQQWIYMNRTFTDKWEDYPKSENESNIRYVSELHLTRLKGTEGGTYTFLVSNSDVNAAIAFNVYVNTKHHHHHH
Sequence of full-length, wild-type human KIT (P10721 other isoform, or with tags, fused parts or gaps limits assumed): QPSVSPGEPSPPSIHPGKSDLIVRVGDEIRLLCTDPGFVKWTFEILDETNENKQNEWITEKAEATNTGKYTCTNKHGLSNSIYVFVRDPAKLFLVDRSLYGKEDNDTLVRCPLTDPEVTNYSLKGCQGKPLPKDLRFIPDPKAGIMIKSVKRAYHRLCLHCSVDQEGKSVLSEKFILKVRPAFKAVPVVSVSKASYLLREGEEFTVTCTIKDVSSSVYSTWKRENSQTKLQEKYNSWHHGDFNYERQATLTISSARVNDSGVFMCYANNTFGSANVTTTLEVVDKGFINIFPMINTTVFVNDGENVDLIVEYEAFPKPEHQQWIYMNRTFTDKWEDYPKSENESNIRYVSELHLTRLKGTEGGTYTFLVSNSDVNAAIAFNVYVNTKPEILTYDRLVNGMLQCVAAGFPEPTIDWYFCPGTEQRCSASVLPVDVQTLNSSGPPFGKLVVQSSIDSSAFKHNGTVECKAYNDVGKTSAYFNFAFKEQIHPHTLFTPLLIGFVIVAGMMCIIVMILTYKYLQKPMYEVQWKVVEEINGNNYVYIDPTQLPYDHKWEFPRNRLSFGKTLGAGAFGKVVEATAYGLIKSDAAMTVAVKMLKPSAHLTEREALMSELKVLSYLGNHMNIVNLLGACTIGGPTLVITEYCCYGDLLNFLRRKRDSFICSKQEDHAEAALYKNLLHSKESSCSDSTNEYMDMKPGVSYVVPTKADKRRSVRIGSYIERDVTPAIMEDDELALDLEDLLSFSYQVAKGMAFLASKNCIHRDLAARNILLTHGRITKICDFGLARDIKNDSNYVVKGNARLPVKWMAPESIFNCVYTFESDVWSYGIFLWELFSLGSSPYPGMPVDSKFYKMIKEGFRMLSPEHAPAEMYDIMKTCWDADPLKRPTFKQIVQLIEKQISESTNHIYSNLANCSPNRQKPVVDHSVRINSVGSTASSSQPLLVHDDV
T3 sequence (P10721 other isoform, or with tags, fused parts or gaps limits assumed): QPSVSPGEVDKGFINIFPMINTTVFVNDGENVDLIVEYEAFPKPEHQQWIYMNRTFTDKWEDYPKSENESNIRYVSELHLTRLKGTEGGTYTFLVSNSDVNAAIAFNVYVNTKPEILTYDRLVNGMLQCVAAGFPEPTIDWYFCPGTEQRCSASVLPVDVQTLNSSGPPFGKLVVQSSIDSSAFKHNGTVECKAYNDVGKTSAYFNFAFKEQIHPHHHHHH

B1: Fab antibody Ab16 (Fab, V domains shown)
VH: EVQLLESGGGLVQPGGSLRLSCAASGFTFSQYVMFWVRQAPGKGLEWVSSIYPSGGHTLYADSVKGRFTISRDNSKNTLYLQMNSLRAEDTAVYYCAKHARGYNRGYFDSWGRGTLVTVSS
VL: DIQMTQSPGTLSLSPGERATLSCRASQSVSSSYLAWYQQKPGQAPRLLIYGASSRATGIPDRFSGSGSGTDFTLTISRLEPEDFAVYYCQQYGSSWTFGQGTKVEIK
notes: Fab from a phage library
B1: the binding result is “no binding” in assay [1], “no binding” in assay [2] and “binds” in assay [3].

B2: Fab antibody Ab18 (Fab, V domains shown)
VH: EVQLLESGGGLVQPGGSLRLSCAASGFTFSWYAMWWVRQAPGKGLEWVSYISSSGGATRYADSVKGRFTISRDNSKNTLYLQMNSLRAEDTAVYYCATVLQYGAFDIWGQGTMVTVSS
VL: QSALTQPPSTSGTPGQRVTISCSGSSSNIGSNYVYWYQQLPGTAPKVLIYRNNKRPSGVPDRFSGSKSGTSASLAISGLRSEDEADYYCAAWDDSLNGVIFGGGTRLTVL
notes: Fab from a phage library
With B2, the binding result in assay [1] is on record as “no binding”; in assay [2], “no binding”; in assay [3], “binds”.

B3: Fab antibody Ab15 (Fab, V domains shown)
VH: EVQLLESGGGLVQPGGSLRLSCAASGFTFSNYTMMWVRQAPGKGLEWVSGIRPSGGGTMYADSVKGRFTISRDNSKNTLYLQMNSLRAEDTAVYYCASVVNHKFDNWGQGTLVTVSS
VL: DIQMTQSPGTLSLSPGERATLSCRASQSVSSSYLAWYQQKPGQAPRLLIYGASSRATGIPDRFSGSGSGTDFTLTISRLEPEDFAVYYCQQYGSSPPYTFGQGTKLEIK
notes: Fab from a phage library
As for B3, the binding result in assay [1] is listed as “no binding”; in assay [2] it was “no binding”; in assay [3] it was “binds”.

B4: Fab antibody Ab4 (Fab, V domains shown)
VH: EVQLLESGGGLVQPGGSLRLSCAASGFTFSWYWMYWVRQAPGKGLEWVSGIYPSGGFTSYADSVKGRFTISRDNSKNTLYLQMNSLRAEDTAVYYCARSYYYGSGSYYNSASFDYWGQGTLVTVSS
VL: DIQMTQSPSSLSASVGDRVAITCRASQSIDTYLNWYQQKPGKAPKLLIYAASKLEDGVPSRFSGSGTGTDFTLTIRSLQPEDFASYFCQQSYSSPGITFGPGTKVEIK
notes: Fab from a phage library
Turning to B4, the binding result in assay [1] was “no binding”; in assay [2], “no binding”; in assay [3] it was “binds”.

B5: Fab antibody Ab12 (Fab, V domains shown)
VH: EVQLLESGGGLVQPGGSLRLSCAASGFTFSFYKMHWVRQAPGKGLEWVSGIWPSGGYTEYADSVKGRFTISRDNSKNTLYLQMNSLRAEDTAVYYCARSSGYHIDYWGQGTLVTVSS
VL: DIQMTQSPGTLSLSPGERATLYCRASQSVKSNYLAWYQQKPGQAPRLLIYGASTRATDIPDRFSGSGSGTDFTLTISRLEPEDFAVYYCQQYGSSLSYTFGQGTKLEIK
notes: Fab from a phage library
Consider B5, for which the EC50 in assay [4] is no more than 300 nM.

B6: Fab antibody Ab19 (Fab, V domains shown)
VH: EVQLLESGGGLVQPGGSLRLSCAASGFTFSNYQMQWVRQAPGKGLEWVSSIRPSGGSTQYADSVKGRFTISRDNSKNTLYLQMNSLRAEDTAVYYCARGSSHAFDIWGQGTMVTVSS
VL: DIQMTQSPGTLSLSPGERATLSCRASQSFRSSYLAWYQQKPGQAPRLLIYDTSTRATGIPDRFSGSGSGTDFTLTISRLEPEDFAVYYCQQYGSSPPMYTFGQGTKLEIK
notes: Fab from a phage library
For B6, the binding result in assay [5] is given as “binds”.

B7: Fab antibody Ab14 (Fab, V domains shown)
VH: EVQLLESGGGLVQPGGSLRLSCAASGFTFSRYAMWWVRQAPGKGLEWVSYIYSSGGQTGYADSVKGRFTISRDNSKNTLYLQMNSLRAEDTAVYYCARGGVTFDLWGRGTLVTVSS
VL: DIQMTQSPATLSVSPGERATLSCRASQGVSTYLAWYQQKPGQAPRLLIYGASTRATGIPARFSGSGSGTDFTLTINSLELEDFAVYYCQQRRSWPPTFGQGTKVEIK
notes: Fab from a phage library
In the case of B7, the binding result in assay [1] is recorded as “no binding”; in assay [2] it was “no binding”; in assay [3], “binds”.

B8: IgG version of Fab antibody Ab1 (antibody, V domains shown)
VH: EVQLLESGGGLVQPGGSLRLSCAASGFTFSNYLMSWVRQAPGKGLEWVSSIVPSGGFTHYADSVKGRFTISRDNSKNTLYLQMNSLRAEDTAVYYCARLQTGSWRVHAFDIWGQGTMVTVSS
VL: DIQMTQSPTSLSAFVGDRVTITCQASQDIGNYLNWYQQKSGEPPKLLVYDASFLKKGVPSRFSGSGSGTQYFLTIYSLQPEDFATYFCQHSDNLSVTFGGGTKVEVK
notes: Variable regions of Fab Ab1 cloned into the Dyax pR vector
In the case of B8, in assay [6], the “IC50 of inhibition of KIT phosphorylation (phospho-KIT assay)” value was roughly 2.5 nM. For the same molecule, the EC50 in assay [7] was roughly 0.007 nM.

B9: full-length human IgG1 antibody Ab1 (antibody, V domains shown)
VH: EVQLLESGGGLVQPGGSLRLSCAASGFTFSNYLMSWVRQAPGKGLEWVSSIVPSGGFTHYADSVKGRFTISRDNSKNTLYLQMNSLRAEDTAVYYCARLQTGSWRVHAFDIWGQGTMVTVSS
VL: DIQMTQSPTSLSAFVGDRVTITCQASQDIGNYLNWYQQKSGEPPKLLVYDASFLKKGVPSRFSGSGSGTQYFLTIYSLQPEDFATYFCQHSDNLSVTFGGGTKVEVKR
notes: also called human monoclonal Ab1
In the case of B9, the “50% inhibition concentration (IC50) of tyrosine phosphorylation of the cytoplasmic domain of KIT (cell-based phospho-KIT assay)” value in assay [6] worked out at 2.2 nM. Further, in assay [8], the EC50 was 0.171 nM.

B10: full-length human IgG1 antibody Ab21 (antibody, V domains shown)
VH: EVQLLESGGGLVQPGGSLRLSCAASGFTFSNYLMSWVRQAPGKGLEWVSSIVPSGGFTHYADSVKGRFTISRDNSKNTLYLQMNSLRAEDTAVYYCARLQTGSWRVHAFDIWGQGTMVTVSS
VL: DIQMTQSPTSLSAFVGDRVTITCQASQDIGNYLNWYQQKSGEPPKLLVYDASFLKKGVPSRFSGSGSGTQYFLTIYSLQPEDFATYFCQHSDSLSVTFGGGTKVEVKR
notes: Derived from Ab1 by changing the N in VL CDR3 to S to remove a glycosylation site; also called human monoclonal Ab21
With B10, the “50% inhibition concentration (IC50) of tyrosine phosphorylation of the cytoplasmic domain of KIT (cell-based phospho-KIT assay)” value in assay [6] was 1.3 nM. For the same molecule, in assay [8], the EC50 was found to be 0.156 nM.

B11: Fab antibody Ab11 (Fab, V domains shown)
VH: EVQLLESGGGLVQPGGSLRLSCAASGFTFSNYRMMWVRQAPGKGLEWVSGIYPSGGGTFYADSVKGRFTISRDNSKNTLYLQMNSLRAEDTAVYYCARKKMATFAAFDIWGQGTMVTVSS
VL: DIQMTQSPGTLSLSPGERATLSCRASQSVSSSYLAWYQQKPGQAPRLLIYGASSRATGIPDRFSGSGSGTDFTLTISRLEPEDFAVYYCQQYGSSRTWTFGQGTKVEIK
notes: Fab from a phage library
Consider B11, for which the EC50 in assay [4] was no more than 300 nM.

For orientation: EC50 means the concentration that produces a half-maximal response.

For the origin of these results see patent publication US20130011406A1 (KOLLTAN PHARMACEUTICALS, published 2013).
